Laboratory results from PMC3197237.

Assays:
[1] = biological target: GST-AeIAP1 BIR2 (residues 188-278 of AeIAP1) (A. aegypti); test: pull-down
[2] = biological target: GST-AeIAP1 BIR1 (residues 24-118 of AeIAP1) (A. aegypti); test: pull-down

Row | % of input bound [1] | % of input bound [2] | Substance
1 | 50.2 % of input | 79.9 % of input | activated (cleaved) AeDronc: in vitro translated AeDronc partially processed by active recombinant AeDronc
2 | 45.2 % of input | 70.9 % of input | in vitro translated full length AeDronc (enzyme)
